Assay results published in patent publication US20230125550A1 (ARCELLX, published 2023).

T1: AFP p26 (human, UniProt P02771 381-609)
T1 construct: The construct used is not described
T1 sequence: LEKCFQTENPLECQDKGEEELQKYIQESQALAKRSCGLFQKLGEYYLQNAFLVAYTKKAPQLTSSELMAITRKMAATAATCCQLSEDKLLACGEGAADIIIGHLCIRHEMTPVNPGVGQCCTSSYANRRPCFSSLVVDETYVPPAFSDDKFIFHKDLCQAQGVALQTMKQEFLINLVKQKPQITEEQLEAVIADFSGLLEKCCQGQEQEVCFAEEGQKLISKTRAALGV

B1: SEQ ID NO 847 (designed binder)
chain: MGSWWVFKKTLAEIKWTLEALGGSEAELAYFEAEIAFFEFILQQYKGKGNPEVEALRKEAAAIRDELQAYRHN
B2: SEQ ID NO 845 (designed binder)
chain: MGSWYLFKTELAAIKYRLEALGGSEAELASFEYEIAWFEHILQFYKGKGNPEVEALRKEAAAIRDELQAYRHN
B3: SEQ ID NO 846 (designed binder)
chain: MGSWYWFKYELAEIKWHLEALGGSEAELAHFEHSIAVFESQLQQYKGKGNPEVEALRKEAAAIRDELQAYRHN
B4: SEQ ID NO 843 (designed binder)
chain: MGSWYIFKQELASIKLSLEALGGSEAELAHFEAEIAWFEWWLQWYKGKGNPEVEALRKEAAAIRDELQAYRHN
B5: SEQ ID NO 855 (designed binder)
chain: MGSWTHFKEDLAHIKDRLEALGGSEAELAAFELDIAWFEFMLQYYKGKGNPEVEALRKEAAAIRDELQAYRHN
B6: SEQ ID NO 862 (designed binder)
chain: MGSWSIFKQDLADIKDSLEALGGSEAELAMFEMDIAWFEHTLQYYKGKGNPEVEALRKEAAAIRDELQAYRHN
B7: SEQ ID NO 850 (designed binder)
chain: MGSWIIFKTDLARIKNYLEALGGSEAELATFERDIAWFEFMLQIYKGKGNPEVEALRKEAAAIRDELQAYRHN
B8: SEQ ID NO 860 (designed binder)
chain: MGSWVEFKRDLANIKQRLEALGGSEAELAQFEMQIAWFEHTLQYYKGKGNPEVEALRKEAAAIRDELQAYRHN
B9: SEQ ID NO 861 (designed binder)
chain: MGSWSYFKEDLANIKSSLEALGGSEAELAWFESSIAWFEHTLQYYKGKGNPEVEALRKEAAAIRDELQAYRHN
B10: SEQ ID NO 856 (designed binder)
chain: MGSWYYFKERLAAIKDRLEALGGSEAELAIFEADIAWFEFMLQYYKGKGNPEVEALRKEAAAIRDELQAYRHN
B11: SEQ ID NO 852 (designed binder)
chain: MGSWQIFKQDLAAIKDYLEALGGSEAELAIFEFDIAWFEHMLQWYKGKGNPEVEALRKEAAAIRDELQAYRHN
B12: SEQ ID NO 848 (designed binder)
chain: MGSWVYFKDHLAEIKSQLEALGGSEAELALFEYDIAWFEFILQYYKGKGNPEVEALRKEAAAIRDELQAYRHN
B13: SEQ ID NO 854 (designed binder)
chain: MGSWFVFKEDLAGIKFILEALGGSEAELAMFETDIAWFEYMLQYYKGKGNPEVEALRKEAAAIRDELQAYRHN
B14: SEQ ID NO 853 (designed binder)
chain: MGSWLAFKEDLAHIKSILEALGGSEAELAEFEHDIAWFEYMLQYYKGKGNPEVEALRKEAAAIRDELQAYRHN
B15: SEQ ID NO 859 (designed binder)
chain: MGSWVLFKQDLAMIKQRLEALGGSEAELAMFEYDIAWFEHMLQYYKGKGNPEVEALRKEAAAIRDELQAYRHN
B16: SEQ ID NO 851 (designed binder)
chain: MGSWMHFKQDLAEIKGYLEALGGSEAELAIFEMDIAWFEYMLQYYKGKGNPEVEALRKEAAAIRDELQAYRHN
B17: SEQ ID NO 849 (designed binder)
chain: MGSWVYFKHRLAEIKDQLEALGGSEAELAEFETDIAWFEWMLQYYKGKGNPEVEALRKEAAAIRDELQAYRHN
B18: SEQ ID NO 844 (designed binder)
chain: MGSWVRFKTELAYIKESLEALGGSEAELAMFESEIAIFEHSLQTYKGKGNPEVEALRKEAAAIRDELQAYRHN

target: T1, AFP p26; test: phage ELISA, A450 target/A450 IgG1-Fc
Outline: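 Using VCSM13 helper phage, phage were rescued in 96-well format from single phagemid colonies taken from panning output. Wells were coated with 1.3 microg/ml goat anti-human IgG1-Fc antibody and captured 5 nM recombinant human target or IgG1-Fc before 50 microl of 5×-diluted phage were added, with binding read at 450 nm via HRP-conjugated anti-M13 antibody. Each clone's ELISA ratio is its target-to-IgG1-Fc absorbance, averaged across all screened wells with that clone.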

| Binder | ELISA_avg |
| --- | --- |
| B1 | 18.6 ratio |
| B2 | 20.1 ratio |
| B3 | 21.5 ratio |
| B4 | 19.4 ratio |
| B5 | 30.4 ratio |
| B6 | 16.6 ratio |
| B7 | 16.7 ratio |
| B8 | 30.4 ratio |
| B9 | 11.6 ratio |
| B10 | 31.5 ratio |
| B11 | 17.4 ratio |
| B12 | 22.1 ratio |
| B13 | 14.2 ratio |
| B14 | 18.6 ratio |
| B15 | 29.7 ratio |
| B16 | 18.9 ratio |
| B17 | 11.1 ratio |
| B18 | 20.5 ratio |
